The values below come from patent US20050260216A1 (published 2005).

Assay [1] concerns the target human type-2 IL-4 receptor (on A549 cells) (human) (UniProt P24394). The experiment in a line: cell-based or functional assay.
Assay [2] has as its target T1, human type-2 IL-4 receptor (on A549 cells) (human, UniProt P24394 26-825; P78552 22-427).
T1 sequence (looked up) 1: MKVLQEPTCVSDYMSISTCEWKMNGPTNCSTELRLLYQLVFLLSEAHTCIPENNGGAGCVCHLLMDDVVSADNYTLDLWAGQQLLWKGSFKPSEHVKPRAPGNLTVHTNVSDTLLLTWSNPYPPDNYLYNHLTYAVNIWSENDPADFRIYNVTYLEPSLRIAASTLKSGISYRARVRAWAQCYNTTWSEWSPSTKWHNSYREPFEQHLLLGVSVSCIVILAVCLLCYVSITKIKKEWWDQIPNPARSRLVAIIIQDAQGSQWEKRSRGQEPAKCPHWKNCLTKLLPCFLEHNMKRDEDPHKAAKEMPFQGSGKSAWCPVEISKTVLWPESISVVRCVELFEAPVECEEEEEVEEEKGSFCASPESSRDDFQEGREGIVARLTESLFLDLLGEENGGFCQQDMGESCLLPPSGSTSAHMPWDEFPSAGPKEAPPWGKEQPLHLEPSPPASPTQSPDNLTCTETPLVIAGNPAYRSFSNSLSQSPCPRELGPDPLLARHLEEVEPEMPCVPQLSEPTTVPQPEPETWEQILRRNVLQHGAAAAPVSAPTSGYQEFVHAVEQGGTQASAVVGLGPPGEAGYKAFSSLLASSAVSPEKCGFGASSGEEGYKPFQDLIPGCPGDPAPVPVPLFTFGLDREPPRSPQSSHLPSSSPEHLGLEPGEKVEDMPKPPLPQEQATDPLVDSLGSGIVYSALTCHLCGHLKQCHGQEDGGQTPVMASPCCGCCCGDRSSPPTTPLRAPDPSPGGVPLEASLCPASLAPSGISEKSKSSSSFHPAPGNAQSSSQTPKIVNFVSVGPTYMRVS
T1 sequence (looked up) 2: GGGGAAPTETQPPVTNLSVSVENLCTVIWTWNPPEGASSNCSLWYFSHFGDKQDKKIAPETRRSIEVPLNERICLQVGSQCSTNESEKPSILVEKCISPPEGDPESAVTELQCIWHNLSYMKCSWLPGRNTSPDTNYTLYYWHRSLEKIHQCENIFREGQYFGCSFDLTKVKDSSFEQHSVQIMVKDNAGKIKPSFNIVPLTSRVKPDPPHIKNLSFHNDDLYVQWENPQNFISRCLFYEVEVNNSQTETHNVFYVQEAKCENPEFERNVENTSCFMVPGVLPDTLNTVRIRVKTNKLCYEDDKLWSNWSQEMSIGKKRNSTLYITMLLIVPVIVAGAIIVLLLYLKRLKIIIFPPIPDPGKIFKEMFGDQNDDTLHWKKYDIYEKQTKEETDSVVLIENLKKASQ
The experiment in a line: cell-based or functional assay.

In assay [1], “recombinant mouse IL-13 (catalogue number 413-ML-025, R&D Systems) (from UniProt P20109 26-131) (ligand)” showed a phosphorylation of STAT6 in A549 cells (Western blot); lowest active concentration tested of 10 ng/mL.

B1: chimaeric IL-13 (free cIL-13 generated from GST-cIL-13 by thrombin cleavage) (ligand)
chain: GPVPRSVSLPLTLRELIEELVNITQDQTPLCNGSMVWSVDLAAGGYCAALESLTNISNCNAIEKTQRMLGGLCNRKAPTTVSSLPDTKIEVAQFVKDLLSYTKQLFRHGPF
For the molecule B1, the “bioactivity relative to mIL-13 (STAT6 phosphorylation in A549 cells)” value in assay [2] was approximately 5 fold less than mIL-13.
